How the values were obtained:
[1] = biological target: T1, human CD161 (NKR-P1A) (human, UniProt Q12918 1-225); experiment: flow cytometry, LLT1-Fc multimer on CD161-transfected HEK293T cells
T1 construct: Native on polyclonal human NK and T cells in the staining and functional assays; The background calls CD161 a disulfide-bond homodimer; also called CD161 receptor; CD161-pIRES2-EGFP transfected HEK293T cells
T1 sequence: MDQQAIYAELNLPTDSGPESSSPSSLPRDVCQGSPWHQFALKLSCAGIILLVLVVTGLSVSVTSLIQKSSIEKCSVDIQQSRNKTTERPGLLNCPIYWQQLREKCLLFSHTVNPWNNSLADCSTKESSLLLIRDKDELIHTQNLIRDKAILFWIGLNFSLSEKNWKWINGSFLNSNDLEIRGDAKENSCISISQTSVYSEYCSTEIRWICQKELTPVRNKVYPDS
Protocol: (§1) Flow cytometry using the LLT1-Fc-ProteinA-biotin-Streptavidin-APC multimer (LLT1-multimer) was performed to identify the receptor of LLT1.

[2] = biological target: T2, human LLT1 (Lectin-like transcript 1), full length (human, UniProt Q9UHP7 1-191); experiment: flow cytometry, LLT1 multimer on LLT1-transfected HEK293T cells
T2 construct: Expressed on transfected HEK293T, Hela, C1R and P815 cells; The background says LLT1 is a homodimer on the cell surface; also called LLT1-pIRES2-EGFP transfected HEK293T cells
T2 sequence: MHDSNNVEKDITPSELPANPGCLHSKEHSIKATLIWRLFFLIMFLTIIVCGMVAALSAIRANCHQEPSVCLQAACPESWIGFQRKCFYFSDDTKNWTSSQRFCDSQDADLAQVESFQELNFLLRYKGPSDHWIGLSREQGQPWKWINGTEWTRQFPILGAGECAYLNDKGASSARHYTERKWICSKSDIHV
Protocol: as §1

binding result [1]: binds
binding result [2]: no binding
B1: LLT1-Fc-ProteinA-biotin-Streptavidin-APC multimer (Fc fusion)
chain: RANCHQEPSVCLQAACPESWIGFQRKCFYFSDDTKNWTSSQRFCDSQDADLAQVESFQELNFLLRYKGPSDHWIGLSREQGQPWKWINGTEWTRQFPILGAGECAYLNDKGASSARHYTERKWICSKSDIHV
notes: also called LLT1-multimer; LLT1 multimer; not shown: Fc portion of human IgG1

From patent publication US20090074756A1 (published 2009)
